According to FireProtDB (doi:10.1111/j.1432-1033.1995.tb20418.x):

Conditions: Aspergillus oryzae (strain ATCC 42149 / RIB 40), Thermal, DSC, 3/3'-dimethylglutaric acid (DMG) 100 mM, NaCl 2 M, whole UniProt chain shown; for heat capacity change of unfolding / unfolding free energy: 25 °C

B1: Guanyl-specific ribonuclease T1 wild type, P00651 (protein)
chain: MMYSKLLTLTTLLLPTALALPSLVERACDYTCGSNCYSSSDVSTAQAAGYQLHEDGETVGSNSYPHKYNNYEGFDFSVSSPYYEWPILSSGDVYSGGSPGADRVVFNENNQLAGVITHTGASGNNFVECT
pH 4
  heat capacity change of unfolding: 1.59 kcal/mol/K
  unfolding free energy: 7.43 kcal/mol
  Tm: 72.4 °C
  unfolding enthalpy (calorimetric): 93.7 kcal/mol
pH 5
  heat capacity change of unfolding: 1.59 kcal/mol/K
  unfolding free energy: 7.39 kcal/mol
  Tm: 73.2 °C
  unfolding enthalpy (calorimetric): 93.2 kcal/mol
pH 6
  heat capacity change of unfolding: 1.59 kcal/mol/K
  unfolding free energy: 6.91 kcal/mol
  Tm: 70.4 °C
  unfolding enthalpy (calorimetric): 90.2 kcal/mol
pH 7
  heat capacity change of unfolding: 1.59 kcal/mol/K
  unfolding free energy: 4.54 kcal/mol
  Tm: 66.8 °C
  unfolding enthalpy (calorimetric): 71.7 kcal/mol
pH 8
  heat capacity change of unfolding: 1.59 kcal/mol/K
  unfolding free energy: 3.63 kcal/mol
  Tm: 65.4 °C
  unfolding enthalpy (calorimetric): 63.8 kcal/mol
